Molecular target: T1, human HLA-A2.1 (HLA-A*0201) class I molecule on the surface of T2 cells (human)
T1 construct: whole, on cells; The b2m chain is added because surface class I carries it
Assay: MHC stabilization and dissociation assay on T2 cells, BB7.2 staining, flow cytometry
Description: Briefly, T2 cells were cultured for 6 hours in serum-free IMDM (ATCC) prior to the addition of candidate peptides at a concentration of 50 μg/250×10³ cells/ml and incubated overnight at 37° C. […] Cells were then washed three times with PBS and analyzed by flow cytometry. […] The relative binding affinity of a given peptide was calculated as MFI_{(peptide)}/MFI_{(negative peptide)}.
T2 cells were incubated overnight with 50 μg/ml of each candidate peptide at 37° C. in serum-free Iscove's Modified Dulbecco's Medium (IMDM). Cells were then incubated with Brefeldin A (Sigma, St. Louis, Mo.) at 10 μg/ml for 1 hour, washed, and incubated at 37° C. for 0, 2, 4 or 6 hours in the presence of Brefeldin A (50 ng/ml). Cells were then stained with BB7.2 mAb. For each time point, peptide-induced HLA-A2.1 expression was calculated as the difference of the mean fluorescence of peptide-loaded T2 cells and mean fluorescence of negative peptide-loaded T2 cells. The rate of dissociation is reflected by the loss of A2.1 expression over time.

binding result	Binder
binds	YQIVGLVAV (9-mer peptide of SIM2) [SIM2(205)]
binds	KLIFLDSRV (9-mer peptide of SIM2) [SIM2(241)]
binds	FLDSRVTEV (9-mer peptide of SIM2) [SIM2(244)]
binds	SLDLKLIFL (9-mer peptide of SIM2) [SIM2(237)]
binds	TLDGFVFVV (9-mer peptide of SIM2) [SIM2(87)]

— patent US20110135643A1 (BETH ISRAEL DEACONESS MEDICAL CENTER, published 2011)
